In US20240101668A1 (WUGEN, published 2024):

B1: Polypeptide No. 137 (scFv, V domains shown)
VH: QVQLVQSGAEVKKPGASVKVSCKASGYTFTDYYIHWVRQAPGQGLEWMGMVNPSGGSANYAQKFQGRVTMTRDTSTSTVYMELSSLRSEDTAVYYCAKDSAWQEPYYFDYWGQGTLVTVSS
VL: DIQMTQSPSSLSASVGDRVTITCRASQGISSYLAWYQQKPGKAPKLLIYDASNLDTGVPSRFSGSGSGTDFTLTISSLQPEDFATYYCQQSYSTPLTFGGGTKVEIKR
notes: scFv
B2: Polypeptide No. 223 (scFv, V domains shown)
VH: QVQLVQSGAEVKKPGASVKVSCKASGYTFTNSFIHWVRQAPGQGLEWMGIINPSGGSTSYAQKFQGRVTMTRDTSTSTVYMELSSLRSEDTAVYYCAKALERRYYYGMDVWGQGTTVTVSS
VL: DIQMTQSPSSLSASVGDRVTITCRASQGISNYLAWYQQKPGKAPKLLIYDGSNLETGVPSRFSGSGSGTDFTLTISSLQPEDFATYYCQQSYSTPLTFGQGTKVEIKR
notes: scFv
B3: Polypeptide No. 215 (scFv, V domains shown)
VH: QVQLVQSGAEVKKPGASVKVSCKASGYTFTGYRMHWVRQAPGQGLEWMGWINPNSGGTNYAQKFQGRVTMTRDTSTSTVYMELSSLRSEDTAVYYCAKGGLDWRNWYFDLWGRGTLVTVSS
VL: DIQMTQSPSSLSASVGDRVTITCRASQGISSYLAWYQQKPGKAPKLLIYAASTLQSGVPSRFSGSGSGTDFTLTISSLQPEDFATYYCQQSYSTPLTFGGGTKVEIKR
notes: scFv
B4: Polypeptide No. 218 (scFv, V domains shown)
VH: QVQLVQSGAEVKKPGASVKVSCKASGYSFTTHYMHWVRQAPGQGLEWMGIINPSGGSTRYAQKFQGRVTMTRDTSTSTVYMELSSLRSEDTAVYYCARGSSYYYYGVDVWGKGTTVTVSS
VL: DIQMTQSPSSLSASVGDRVTITCRASQSISTWLAWYQQKPGKAPKLLIYAASSLQSGVPSRFSGSGSGTDFTLTISSLQPEDFATYYCQQAISFPLTFGGGTKVEIKR
notes: scFv
B5: Polypeptide No. 222 (scFv, V domains shown)
VH: QVQLVQSGAEVKKPGASVKVSCKASGYSFTAYYMHWVRQAPGQGLEWMGIINPSGGSTSYAQKFQGRVTMTRDTSTSTVYMELSSLRSEDTAVYYCARVAGINGEMAYWGQGTLVTVSS
VL: DIQMTQSPSSLSASVGDRVTITCRASQDISNYLAWYQQKPGKAPKLLIYAASTLQSGVPSRFSGSGSGTDFTLTISSLQPEDFATYYCQQSYRTPYTFGQGTKVEIKR
notes: scFv
B6: Polypeptide No. 140 (scFv, V domains shown)
VH: EVQLVESGGGLVKPGGSLRLSCAASGITVSSSWMHWVRQAPGKGLEWVSAIGTGGGTHYADSVKGRFTISRDDSKNTLYLQMNSLKTEDTAVYYCARDQGGQIDHWGQGTLVTVSS
VL: DIQMTQSPSSLSASVGDRVTITCRASQSISSWLAWYQQKPGKAPKLLIYDASTLQSGVPSRFSGSGSGTDFTLTISSLQPEDFATYYCQQSYSIPLTFGGGTKVEIKR
notes: scFv
B7: Polypeptide No. 213 (scFv, V domains shown)
VH: QVQLVQSGAEVKKPGASVKVSCKASGYTFSRYYMSWVRQAPGQGLEWMGWMNPNSGNTGYAQKFQGRVTMTRDTSTSTVYMELSSLRSEDTAVYYCARTRFAAQPHNWHFDLWGRGTLVTVSS
VL: DIQMTQSPSSLSASVGDRVTITCRASQSISSYLNWYQQKPGKAPKLLIYDASNLKTGVPSRFSGSGSGTDFTLTISSLQPEDFATYYCQQSYSTPLTFGPGTKVDIKR
notes: scFv
B8: Polypeptide No. 139 (scFv, V domains shown)
VH: QVQLVQSGAEVKKPGASVKVSCKASGYTLSDHDINWVRQAPGQGLEWMGWMNPSTGNTGYAQKFQGRVTMTRDTSTSTVYMELSSLRSEDTAVYYCERDQLRFGAWFDPWGQGTLVTVSS
VL: DIQMTQSPSSLSASVGDRVTITCRASQGIRNYLAWYQQKPGKAPKLLIYAASSLQSGVPSRFSGSGSGTDFTLTISSLQPEDFATYYCQQSYSIPLTFGGGTKVEIKR
notes: scFv
B9: Polypeptide No. 143 (scFv, V domains shown)
VH: QVQLVQSGAEVKKPGASVKVSCKASGYTFTGYYMHWVRQAPGQGLEWMGWMNANSGNTGFAQKFQGRVTMTRDTSTSTVYMELSSLRSEDTAVYYCARDSSSWLSGGGWFDPWGQGTLVTVSS
VL: DIQMTQSPSSLSASVGDRVTITCRASQSIGTYLSWYQQKPGKAPKLLIYAASSLQSGVPSRFSGSGSGTDFTLTISSLQPEDFATYYCQQSYSSPITFGQGTKLEIKR
notes: scFv
B10: Polypeptide No. 207 (scFv, V domains shown)
VH: QVQLVQSGAEVKKPGASVKVSCKASGYTFTNYYMHWVRQAPGQGLEWMGWMNPNSGNTGYAQRFQGRVTMTRDTSTSTVYMELSSLRSEDTAVYYCAKSHYYYFYGMDVWGQGTTVTVSS
VL: DIQMTQSPSSLSASVGDRVTITCQASHDISKYLNWYQQKPGKAPKLLIYAASILQSGVPSRFSGSGSGTDFTLTISSLQPEDFATYYCQQSYSTPYTFGQGTKLEIKR
notes: scFv
B11: Polypeptide No. 229 (scFv, V domains shown)
VH: QVQLVQSGAEVKKPGASVKVSCKASGYTFTNYYMHWVRQAPGQGLEWMGIINPSGGSTSYAQKFQGRVTMTRDTSTSTVYMELSSLRSEDTAVYYCARGVGYSGYGADLWGRGTLVTVSS
VL: DIQMTQSPSSLSASVGDRVTITCRASQGISNSLAWYQQKPGKAPKLLIYAASSLQSGVPSRFSGSGSGTDFTLTISSLQPEDFATYYCQQSHSPPYTFGQGTKLEIKR
notes: scFv
B12: Polypeptide No. 228 (scFv, V domains shown)
VH: QVQLVQSGAEVKKPGASVKVSCKASGGTFSSHAISWVRQAPGQGLEWMGWINPGSGGTNYAQKFQGRVTMTRDTSTSTVYMELSSLRSEDTAVYYCAKDSYDFWSGYYIDYWGQGTLVTVSS
VL: DIQMTQSPSSLSASVGDRVTITCRASQSIYTHLNWYQQKPGKAPKLLIYAASRLQTGVPSRFSGSGSGTDFTLTISSLQPEDFATYYCQQSYSFPFTFGPGTKVDIKR
notes: scFv
B13: Polypeptide No. 219 (scFv, V domains shown)
VH: QVQLVQSGAEVKKPGASVKVSCKASGYTFTNYYMHWVRQAPGQGLEWMGIINPSSGSASYTQKLQGRVTMTRDTSTSTVYMELSSLRSEDTAVYYCARDRSTLVPLDYWGQGTLVTVSS
VL: DIQMTQSPSSLSASVGDRVTITCRASQGIRSELSWYQQKPGKAPKLLIYKASSLESGVPSRFSGSGSGTDFTLTISSLQPEDFATYYCLQHNSYPLTFGGGTKVEIKR
notes: scFv
B14: Polypeptide No. 141 (scFv, V domains shown)
VH: QVQLVQSGAEVKKPGASVKVSCKASGGTFSSYAISWVRQAPGQGLEWMGVISPNGDTTVYAQKFQGRVTMTRDTSTSTVYMELSSLRSEDTAVYYCARDRGVAHSYYYGMDVWGQGTLVTVSS
VL: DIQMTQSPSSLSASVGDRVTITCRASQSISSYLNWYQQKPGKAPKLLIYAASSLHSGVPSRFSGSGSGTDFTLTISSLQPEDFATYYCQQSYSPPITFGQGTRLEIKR
notes: scFv
B15: Polypeptide No. 208 (scFv, V domains shown)
VH: QVQLVQSGAEVKKPGASVKVSCKASGGTFSSRSISWVRQAPGQGLEWMGIINPSGGGTLYAQKFQGRVTMTRDTSTSTVYMELSSLRSEDTAVYYCAKDMDGWSDAFDIWGQGTTVTVSS
VL: EIVMTQSPATLSVSPGERATLSCRASQSLSNIYLAWYQQKPGQAPRLLIYDVSSRAAGIPARFSGSGSGTEFTLTISSLQSEDFAVYYCQQYATSPLTFGGGTKVEIKR
notes: scFv
B16: Polypeptide No. 142 (scFv, V domains shown)
VH: EVQLLESGGGLVQPGGSLRLSCAASGFTFSSYWMHWVRQAPGKGLEWVAVISYDGSDKYYADSVKGRFTISRDNSKNTLYLQMNSLRAEDTAVYYCARGLGGTTGTADFDYWGQGTLVTVSS
VL: not shown
notes: scFv
B17: Polypeptide No. 212 (scFv, V domains shown)
VH: QVQLVQSGAEVKKPGSSVKVSCKASGYTFTGYYMHWVRQAPGQGLEWMGGIIPILGTANNAQKFQGRVTITADESTSTAYMELSSLRSEDTAVYYCARAPWGTFDYWGQGTLVTVSS
VL: EIVMTQSPATLSVSPGERATLSCRASQSVSSSQLAWYQQKPGQAPRLLIYDTSTRATGIPARFSGSGSGTEFTLTISSLQSEDFAVYYCQQYDNSLWTFGQGTRLEIKR
notes: scFv
B18: Polypeptide No. 138 (scFv, V domains shown)
VH: QVQLVQSGAEVKKPGASVKVSCKASGYTFSSYDMHWVRQAPGQGLEWMGVINPGGGYTNYAQKFQGRVTMTRDTSTSTVYMELSSLRSEDTAVYYCARDEGWELLLDYWGQGTLVTVSS
VL: EIVMTQSPATLSVSPGERATLSCRASQSVGSNLAWYQQKPGQAPRLLIYGASTRATGIPARFSGSGSGTEFTLTISSLQSEDFAVYYCQQSHSLPPTFGQGTRLEIKR
notes: scFv

Columns and labels:
[1] = target: T1, huCD33-R69 stably expressed on Jurkat cells (human, UniProt P20138 18-364); assay: FACS on cells;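 also: fixed Jurkat lines probed with myc-tagged scFv periplasmic extracts, anti-myc PE flow cytometry, PE MFI fold binned − <2, + 2–10, ++ 10–30, +++ >30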
T1 construct: whole, on cells; >200,000 receptors per cell; also called CD33 WT; CD33^ARG69
T1 sequence (P20138 18-364): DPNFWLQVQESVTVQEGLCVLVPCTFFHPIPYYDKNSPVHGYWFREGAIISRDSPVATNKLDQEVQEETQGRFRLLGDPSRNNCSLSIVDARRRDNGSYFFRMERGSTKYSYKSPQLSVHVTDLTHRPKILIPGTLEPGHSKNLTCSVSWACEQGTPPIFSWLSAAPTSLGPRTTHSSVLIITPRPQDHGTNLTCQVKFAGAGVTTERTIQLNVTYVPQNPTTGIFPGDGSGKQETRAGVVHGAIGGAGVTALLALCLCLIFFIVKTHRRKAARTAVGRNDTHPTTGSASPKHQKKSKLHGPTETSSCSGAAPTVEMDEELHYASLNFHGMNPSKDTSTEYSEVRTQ

[2] = target: T2, huCD33-G69 stably expressed on Jurkat cells (human, UniProt P20138 18-364); assay: FACS on cells;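 also: fixed Jurkat lines probed with myc-tagged scFv periplasmic extracts, anti-myc PE flow cytometry, PE MFI fold binned − <2, + 2–10, ++ 10–30, +++ >30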
T2 construct: whole, on cells; >200,000 receptors per cell; also called CD33 Mutant; CD33 R69G
T2 sequence (P20138 18-364 R69G): as the sequence (P20138 18-364) above, with R52G counted along it

[3] = target: T3, huCD33-G69-Fc recombinant protein (human, UniProt P20138 18-259); assay: BLI;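 also: biolayer interferometry: scFvs captured from periplasmic extracts on anti-V5-loaded streptavidin biosensors, antigen association for 2 min, buffer dissociation for 5 min, 1:1 Langmuir fit giving off-rate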
T3 construct: extracellular domain; also called CD33 R69G
T3 sequence (P20138 18-259 R69G): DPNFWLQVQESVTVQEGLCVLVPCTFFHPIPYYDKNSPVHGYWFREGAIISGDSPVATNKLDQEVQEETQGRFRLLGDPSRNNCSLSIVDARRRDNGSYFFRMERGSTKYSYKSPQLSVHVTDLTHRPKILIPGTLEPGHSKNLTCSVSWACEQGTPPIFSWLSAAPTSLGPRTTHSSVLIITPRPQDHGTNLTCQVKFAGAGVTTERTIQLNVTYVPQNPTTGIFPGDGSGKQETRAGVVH
Protocol: Discovered scFvs were analyzed for binding to huCD33-R69-His or huCD33-G69-Fc recombinant proteins (for anti-CD33 scFvs; for CLL-1 scFvs, huCLL1-K244-Avi-Tev-His or huCLL1-Q244-Avi-Tev-His were used; for FLT3, huFLT3-T227-His or huFLT3-M227-Fc were used) using BLI on a ForteBio Octet HTX instrument. Streptavidin-coated biosensors were loaded with biotinylated anti-V5 tag monoclonal antibody for 5 min and were then quenched and blocked with 20 μM amine-PEG2-Biotin for 5 min. scFvs were captured on biosensors from scFv clone periplasmic extracts. huCD33 (or huCLL-1, or huFLT3) proteins were then associated with the captured scFvs for 2 minutes, followed by dissociation with buffer (1×HBST [10 mM HEPES pH 7.4, 150 mM NaCl, 0.05% Tween-20], 1 g/L BSA) for 5 minutes. […] Data was fitted with 1:1 Langmuir equation and off-rate values were reported.

[4] = target: T4, huFLT3-T227 stably expressed on Ramos cells (human, UniProt P36888 27-993); assay: FACS on cells
T4 construct: whole, on cells; also called FLT3 WT

[5] = target: T5, huFLT3-M227 stably expressed on Ramos cells (human, UniProt P36888 27-993); assay: FACS on cells
T5 construct: whole, on cells; also called FLT3 Mutant

Row | Binder | FACS geometric mean fold change over Jurkat parental [1] | FACS geometric mean fold change over Jurkat parental [2] | binding result [3] | FACS geometric mean fold change over Jurkat parental [4] | FACS geometric mean fold change over Jurkat parental [5]
1 | B1 | > 30 fold | > 30 fold | binds |  | 
2 | B2 |  |  |  | > 30 fold | > 30 fold
3 | B3 |  |  |  | 10 to 30 fold | 10 to 30 fold
4 | B4 |  |  |  | 10 to 30 fold | 10 to 30 fold
5 | B5 |  |  |  | > 30 fold | > 30 fold
6 | B6 | 2 to 10 fold | 2 to 10 fold | binds |  | 
7 | B7 |  |  |  | 10 to 30 fold | 10 to 30 fold
8 | B8 | > 30 fold | > 30 fold | binds |  | 
9 | B9 | 2 to 10 fold | 2 to 10 fold | binds |  | 
10 | B10 |  |  |  | 10 to 30 fold | 10 to 30 fold
11 | B11 |  |  |  | > 30 fold | > 30 fold
12 | B12 |  |  |  | > 30 fold | > 30 fold
13 | B13 |  |  |  | 10 to 30 fold | 10 to 30 fold
14 | B14 | 10 to 30 fold | > 30 fold | binds |  | 
15 | B15 |  |  |  | 10 to 30 fold | 10 to 30 fold
16 | B16 | 2 to 10 fold | 2 to 10 fold | binds |  | 
17 | B17 |  |  |  | 10 to 30 fold | 10 to 30 fold
18 | B18 | 10 to 30 fold | 10 to 30 fold | binds |  | 
